# Article PMC6208443 (2018)
# Square brackets hold non-standard residues; d marks the D form. Ends that are not written are not given here. Lys(Me3) = C[N+](C)(C)CCCC[C@H](N)C(=O)O; Lys(Me2) = CN(C)CCCC[C@H](N)C(=O)O; Lys(Me) = CNCCCC[C@H](N)C(=O)O
# T1: RsAGDP1 AGD12 (residues 26–180) (Raphanus sativus)
# T1 chain: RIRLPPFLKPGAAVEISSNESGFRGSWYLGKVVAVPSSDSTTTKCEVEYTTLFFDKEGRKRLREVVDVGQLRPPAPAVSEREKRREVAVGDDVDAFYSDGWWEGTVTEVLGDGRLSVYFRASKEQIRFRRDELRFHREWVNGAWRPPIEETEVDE
# B1: H3K9me2 peptide (ITC) (peptide)
# chain: ARTKQTARKSTGGKA
# modifications: dimethyl-lysine at K9
# B2: H3K9me3 peptide (ITC) (peptide)
# chain: ARTKQTARKSTGGKA
# modifications: trimethyl-lysine at K9
# B3: H3K9me1 peptide (ITC) (peptide)
# chain: ARTKQTARKSTGGKA
# modifications: monomethyl-lysine at K9
# B4: H3K4me1K9me2 peptide (peptide)
# chain: ART[Lys(Me)]QTAR[Lys(Me2)]STGGKA
# B5: H3K4me3K9me2 peptide (peptide)
# chain: ART[Lys(Me3)]QTAR[Lys(Me2)]STGGKA
# B6: H3K4me2K9me2 peptide (peptide)
# chain: ART[Lys(Me2)]QTAR[Lys(Me2)]STGGKA
# Target: RsAGDP1 AGD56
# Assay: ITC
row,Binder,Kd [µM]
1,B1,26.2
2,B2,52.9
3,B3,50

# Target: T1, RsAGDP1 AGD12 (residues 26–180)
# Assay: ITC
row,Binder,Kd [µM]
1,B4,23.4
2,B2,101
3,B3,84.7
4,B5,103
5,B6,25.5

# Target: RsAGDP1 AGD34
# Assay: ITC
row,Binder,Kd [µM]
1,B2,10.7
2,B3,10.1
